Substitutions are numbered along the chain they refer to. Where “and” joins values, the source holds several entries; their conditions need not be identical. Equal values may be shown once.
Biological target: IVIg (Octagam)

B1: pCART204 (protein)
chain: MDDYQRNATEAYAKEVPHQITSVWTKGVTPPEQFRYNNEDVIHAPYLAHQGWYDITKAFDGKDNLLCGAATAGNMLHWWFDQNKTEIEAYLSKHPEKQKIIFNNQELFDLKAAIDTKDSQTNSQLFNYFRDKAFPNLSARQLGVMPDLVLDMFINGYYLNVFKTQSTDVNRPYQDKDKRGGIFDAVFTRGDQTTLLTARHDLKNKGLNDISTIIKQELTEGRALALSHTYANVSISHVINLWGADFNAEGNLEAIYVTDSDANASIGMKKYFVGINAHGHVAISAKKIEGENIGAQVLGLFTLSSGKDIWQKLSGGGHHHHHH
  IVIg cleavage, SDS-PAGE titration: enzyme concentration giving an intense scIgG band: Concentrations of 0.94 ng/ml (lane 6) for pCART202, pCART203 and pCART204 result in an intense band of scIgG (arrow 2), with most of the IgG single cleaved

B2: pCART124 (IdeS with N terminal methionine and histidine tag) (protein)
chain: MDSFSANQEIRYSEVTPYHVTSVWTKGVTPPANFTQGEDVFHAPYVANQGWYDITKTFNGKDDLLCGAATAGNMLHWWFDQNKDQIKRYLEEHPEKQKINFNGEQMFDVKEAIDTKNHQLDSKLFEYFKEKAFPYLSTKHLGVFPDHVIDMFINGYRLSLTNHGPTPVKEGSKDPRGGIFDAVFTRGDQSKLLTSRHDFKEKNLKEISDLIKKELTEGKALGLSHTYANVRINHVINLWGADFDSNGNLKAIYVTDSDSNASIGMKKYFVGVNSAGKVAISAKEIKEDNIGAQVLGLFTLSTGQDSWNQTNGGGHHHHHH
  Conc. of enzyme for 1st IgG heavy chain cleavage (IgG to scIgG), SDS-PAGE: 1900 ng/mL
  Conc. of enzyme for 2nd IgG heavy chain cleavage (scIgG to F(ab')2), SDS-PAGE: 6000 ng/mL and 7500 ng/mL
  IVIg cleavage, SDS-PAGE titration: enzyme concentration at which cleavage starts: IdeS, which starts the cleavage at 0.9 ng/ml (lane 6) and has a dominating scIgG band at 1.9 ng/ml (lane 5)
  IVIg cleavage, SDS-PAGE titration: enzyme concentration giving a dominating scIgG band: IdeS, which starts the cleavage at 0.9 ng/ml (lane 6) and has a dominating scIgG band at 1.9 ng/ml (lane 5)
  IVIg cleavage, SDS-PAGE titration: share of scIgG at 0.94 ng/ml enzyme: the same concentration of IdeS results in less than 50% scIgG (lane 6)

B3: pCART229 (protein)
chain: MDDYQRNATEAYAKEVPHQITSVWTKGVTPPEQFTQGEDVIHAPYLAHQGWYDITKAFDGKDNLLCGAATAGNMLHWWFDQNKTEIEAYLSKHPEKQKIIFRNQELFDLKAAIDTKDSQTNSQLFNYFRDKAFPNLSARQLGVMPDLVLDMFINGYYLNVFKTQSTDVNRPYQDKDKRGGIFDAVFTRGNQTTLLTARHDLKNKGLNDISTIIKQELTEGRALALSHTYANVSISHVINLWGADFNAEGNLEAIYVTDSDANASIGMKKYFVGINAHGHVAISAKKIEGENIGAQVLGLFTLSSGKDIWQKLSGGGHHHHHH
  Conc. of enzyme for 1st IgG heavy chain cleavage (IgG to scIgG), SDS-PAGE: 1900 ng/mL
  Conc. of enzyme for 2nd IgG heavy chain cleavage (scIgG to F(ab')2), SDS-PAGE: 7500 ng/mL

B4: pCART206 (protein)
chain: B3 chain with F101I, R102N, N190D
  IVIg cleavage in the presence of anti-IdeS neutralizing antibodies, SDS-PAGE titration: A similar result was obtained for pCART206 (data not shown)

B5: pCART210 (protein)
chain: B3 chain with H48N, A111E, D114R, N126E, N135Y, N169K, Q215E, E219K, A276K, S313N
  IVIg cleavage of the 1st heavy chain, SDS-PAGE titration: pCART207, pCART208 and pCART210 all show increased efficacy compared to IdeS (BX1001865) in the cleavage of the 1st IgG heavy chain (lane 6)

B6: pCART208 (protein)
chain: B3 chain with F101I, N190D
  IVIg cleavage of the 1st heavy chain, SDS-PAGE titration: pCART207, pCART208 and pCART210 all show increased efficacy compared to IdeS (BX1001865) in the cleavage of the 1st IgG heavy chain (lane 6)
  IVIg cleavage of the 1st heavy chain, SDS-PAGE titration: fold efficacy over IdeS: In the case of pCART208 this is approximately a 4 fold increase in cleavage efficacy of the 1st heavy chain
  IVIg cleavage of the 2nd heavy chain, SDS-PAGE titration: enzyme concentration giving a dominating F(ab')2 band: pCART208 shows an improved cleavage efficacy, resulting in a dominating F(ab')2 band (arrow 3) at 1.9 ng/ml (lane 5), whereas IdeS (BX1001865) has only generated scIgG (arrow 2) at the same concentration

B7: pCART203 (protein)
chain: B3 chain with R102N, N190D
  IVIg cleavage, SDS-PAGE titration: pCART203 shows a capacity comparable to IdeS (BX1001865 and pCART124) at the 2nd cleavage site (lane 2, 3 and 4) and a higher cleavage efficacy than both IdeS and IdeZ (pCART144) at the 1st cleavage site (lane 7)
  IVIg cleavage, SDS-PAGE titration: enzyme concentration at which cleavage is seen: Enzyme pCART203 demonstrates IgG cleavage at 0.5 ng/ml (lane 7)
  IVIg cleavage, SDS-PAGE titration: enzyme concentration giving an intense scIgG band: Concentrations of 0.94 ng/ml (lane 6) for pCART202, pCART203 and pCART204 result in an intense band of scIgG (arrow 2), with most of the IgG single cleaved
  IVIg cleavage, SDS-PAGE titration: enzyme concentration giving mainly scIgG: has generated mainly scIgG (arrow 2) at about 0.9 ng/ml (lane 6)
  IVIg cleavage, SDS-PAGE titration: fold efficacy over IdeS: This corresponds to a 2 fold increased efficacy compared to IdeS

B8: pCART202 (protein)
chain: MDDYQRNATEAYAKEVPHQITSVWTKGVTPLTPEQFTQGEDVIHAPYLAHQGWYDITKAFDGKDNLLCGAATAGNMLHWWFDQNKTEIEAYLSKHPEKQKIIFNNQELFDLKAAIDTKDSQTNSQLFNYFRDKAFPNLSARQLGVMPDLVLDMFINGYYLNVFKTQSTDVNRPYQDKDKRGGIFDAVFTRGDQTTLLTARHDLKNKGLNDISTIIKQELTEGRALALSHTYANVSISHVINLWGADFNAEGNLEAIYVTDSDANASIGMKKYFVGINAHGHVAISAKKIEGENIGAQVLGLFTLSSGKDIWQKLSGGGHHHHHH
  IVIg cleavage, SDS-PAGE titration: enzyme concentration giving an intense scIgG band: Concentrations of 0.94 ng/ml (lane 6) for pCART202, pCART203 and pCART204 result in an intense band of scIgG (arrow 2), with most of the IgG single cleaved

B9: IdeS BX1001865 (protein)
chain: DSFSANQEIRYSEVTPYHVTSVWTKGVTPPANFTQGEDVFHAPYVANQGWYDITKTFNGKDDLLCGAATAGNMLHWWFDQNKDQIKRYLEEHPEKQKINFNGEQMFDVKEAIDTKNHQLDSKLFEYFKEKAFPYLSTKHLGVFPDHVIDMFINGYRLSLTNHGPTPVKEGSKDPRGGIFDAVFTRGDQSKLLTSRHDFKEKNLKEISDLIKKELTEGKALGLSHTYANVRINHVINLWGADFDSNGNLKAIYVTDSDSNASIGMKKYFVGVNSAGKVAISAKEIKEDNIGAQVLGLFTLSTGQDSWNQTN
  Conc. of enzyme for 1st IgG heavy chain cleavage (IgG to scIgG), SDS-PAGE: 1900 ng/mL
  Conc. of enzyme for 2nd IgG heavy chain cleavage (scIgG to F(ab')2), SDS-PAGE: 6000 ng/mL and 7500 ng/mL
  IVIg cleavage, SDS-PAGE titration: enzyme concentration at which cleavage starts: IdeS, which starts the cleavage at 0.9 ng/ml (lane 6) and has a dominating scIgG band at 1.9 ng/ml (lane 5)
  IVIg cleavage, SDS-PAGE titration: enzyme concentration giving a dominating scIgG band: IdeS, which starts the cleavage at 0.9 ng/ml (lane 6) and has a dominating scIgG band at 1.9 ng/ml (lane 5)
  IVIg cleavage, SDS-PAGE titration: enzyme concentration giving mainly scIgG: IdeS (BX1001865) has generated mainly scIgG (arrow 2) at a concentration of 1.9 ng/ml (lane 5)
  IVIg cleavage, SDS-PAGE titration: share of scIgG at 0.94 ng/ml enzyme: the same concentration of IdeS results in less than 50% scIgG (lane 6)

B10: pCART144 (IdeZ with N terminal methionine and histidine tag) (protein)
chain: MDDYQRNATEAYAKEVPHQITSVWTKGVTPLTPEQFRYNNEDVIHAPYLAHQGWYDITKAFDGKDNLLCGAATAGNMLHWWFDQNKTEIEAYLSKHPEKQKIIFNNQELFDLKAAIDTKDSQTNSQLFNYFRDKAFPNLSARQLGVMPDLVLDMFINGYYLNVFKTQSTDVNRPYQDKDKRGGIFDAVFTRGDQTTLLTARHDLKNKGLNDISTIIKQELTEGRALALSHTYANVSISHVINLWGADFNAEGNLEAIYVTDSDANASIGMKKYFVGINAHGHVAISAKKIEGENIGAQVLGLFTLSSGKDIWQKLSGGGHHHHHH
  IVIg cleavage of the 2nd heavy chain, SDS-PAGE titration: pCART144 (IdeZ) is worse in cleavage of the 2nd heavy chain compared to IdeS (BX1001865 and pCART124)
  IVIg cleavage, SDS-PAGE titration: shows more effective cleavage at the 1st IgG heavy chain (lane 6) compared to IdeS (BX1001865 and pCART124)

— US20230302100
